Laboratory results: US20240309070A1 (ADMARE THERAPEUTICS SOCIETY, published 2024)
Substitutions are numbered along the chain they refer to. Where two headings read alike, the source gives them in different places.

Experiments:
[1] = target: T1, VV B5 monomer protein (Wyeth Vaccinia strain B5 with C-terminal AVI tag and HIS6 tag) (Vaccinia virus, Wyeth strain, UniProt O57254 18-279); test: BLI (Octet), antibody on AHC sensor, B5 monomer analyte
T1 construct: also called B5 protein; VV B5 protein

[2] = target: T2, Western Reserve B5 on cells infected with VVddeGFP Western Reserve virus (Vaccinia virus, Western Reserve strain, UniProt Q01227 18-317); test: flow cytometry, HT29 cells infected with WR VV
T2 construct: also called VV B5; WR

[3] = target: T1, VV B5 monomer protein (Wyeth Vaccinia …); test: BLI (Octet), antibody on AHC sensor, B5 monomer analyte; remark: listed apart in the source
[4] = target: T1, VV B5 monomer protein (Wyeth Vaccinia …); test: ELISA, B5 monomer coated
[5] = target: T2, Western Reserve B5 on cells infected …; test: flow cytometry, SKOV3 cells infected with WR VV
[6] = target: T3, Copenhagen B5 on cells infected with VVCopenhagen (YFP) virus (Vaccinia virus, Copenhagen strain, UniProt P21115 18-317); test: flow cytometry, HT29 cells infected with Copenhagen VV
T3 construct: also called VV B5

B1: A048-H3L2 (antibody, V domains shown)
VH: EVQLLESGGGLVQPGGSLRLSCAASGFSFSSSYYMCWVRQAPGKGLEWIACIYTSSGSAYYADSVKGRFTISRDNSKNTLYLQMNSLRAEDTAVYYCVRNAVGSSYYLYLWGQGTLVTVSS
VL: AQVLTQSPSTLSASVGDRVTITCQASQSVAGNNYLSWYQQKPGKAPKLLIYSVSTLASGVPSRFSGSGSGTEFTLTISSLQPDDFATYYCQGYYNDGIWAFGQGTKVEIK
- Kd [1]: 3.83 nM
- koff [1]: 0.000397 s⁻¹
- kon [1]: 103000 M⁻¹ s⁻¹
- EC50 [2]: 1.32 nM
- Kd [3]: 3 nM
- EC50 [4]: 0.0835 nM
- EC50 [5]: 0.67 nM
- EC50 [6]: 1.87 nM

B2: A048-H5L5 (antibody, V domains shown)
VH: QVTLKESGPVLVKPTETLTLTCTASGFSFSSSYYMCWVRQPPGKALEWIACIYTSSGSAYYANWAKGRFTISRDTSKSQVVLTMTNMDPVDTATYFCVRNAVGSSYYLYLWGQGTLVTVSS
VL: EQVLTQSPATLSLSPGERATLSCQASQSVAGNNYLSWYQQKPGQAPRLLIYSVSTLASGIPARFSGSGSGTDFTLTISSLEPEDFAVYYCQGYYNDGIWAFGQGTKLEIK
- Kd [1]: 8.55 nM
- koff [1]: 0.000521 s⁻¹
- kon [1]: 60800 M⁻¹ s⁻¹
- EC50 [2]: 2.28 nM
- EC50 [4]: 0.104 nM
- EC50 [5]: 1.36 nM
- EC50 [6]: 2.39 nM

B3: A048-H1L1 (antibody, V domains shown)
VH: B1 VH with D63N, S64W, V65A
VL: B1 VL with A1D, Q2I, V3Q, L4M
- Kd [1]: 9.96 nM
- koff [1]: 0.000763 s⁻¹
- kon [1]: 76600 M⁻¹ s⁻¹
- EC50 [2]: 0.97 nM
- EC50 [4]: 0.0862 nM
- EC50 [5]: 1.03 nM
- EC50 [6]: 2.37 nM
